Reference: the RNAGym collection of RNA variant scans (doi:10.7554/elife.80360)

B1: Hairpin Ribozyme (parent)
chain: GUCCUCUUUCACGUGCGCGUGAAAGAGAGAAGUGAACCAGAGAAACACACGUUGUGGUAUAUUACCUGGUA

Variants of: B1
Experiment: self-cleavage, relative activity (ratio to wild type); higher = more cleavage; co-transcriptional

| Variant | self-cleavage |
| --- | --- |
| GUCCUCUUUCACGUGCGAGUGAAAGAGAGAAGUGAACCAGAGAAACACACGUUGUGGUAUAUUACCUGGUA [C18A] | 1.06 |
| GUCCUCUUUCACGUGCUCGUGAACGAGAGAAGUGAACCAGAGAAACACACGUUGUGGUAUAUUACCUGGUA [G17U A24C] | 0.848 |
| GUCCUCUUUCACGUGCUCGUGAAAGCGAGAAGUGAACCAGAGAAACACACGUUGUGGUAUAUUACCUGGUA [G17U A26C] | 0.682 |
| GUCCUCUUUCACGUGCUCGUGAAAGAGAGAAGUCAACCAGAGAAACACACGUUGUGGUAUAUUACCUGGUA [G17U G34C] | 1.5 |
| GUCCUCUUUCACGUGCUCGUGAAAGAGAGAAGUUAACCAGAGAAACACACGUUGUGGUAUAUUACCUGGUA [G17U G34U] | 1.29 |
| GUCCUCUUUCACGUGCCCCUGAAAGAGAGAAGUGAACCAGAGAAACACACGUUGUGGUAUAUUACCUGGUA [G17C G19C] | 0.68 |
| GUCCUCUUUCACGUGCCCGUGAAAGAGAGAAGUGAACCAGAGAAACACACUUUGUGGUAUAUUACCUGGUA [G17C G51U] | 0.679 |
| GUCCUCUUUCACGUGCCCGUGAAAGAGAGAAGUGAACCAUAGAAACACACGUUGUGGUAUAUUACCUGGUA [G17C G40U] | 0.144 |
| GUCCUCUUUCACGUGCUCGUGAAAGAGAGAAGUGAACAAGAGAAACACACGUUGUGGUAUAUUACCUGGUA [G17U C38A] | 0.136 |
| GUCCUCUUUCACGUGCUCGUGAAAGAGAGAAGUGAGCCAGAGAAACACACGUUGUGGUAUAUUACCUGGUA [G17U A36G] | 1.06 |
| GUCCUCUUUCACGUGCUCGUGAAAGAGAGAAGUGACCCAGAGAAACACACGUUGUGGUAUAUUACCUGGUA [G17U A36C] | 0.587 |
| GUCCUCUUUCACGUGCCCGUGAAAGAGAGAAGUGAACCAGAGAAACACACGUUGUGGUAUAUUACCUGUUA [G17C G69U] | 0.196 |
| GUCCUCUUUCACGUGCUCGUCAAAGAGAGAAGUGAACCAGAGAAACACACGUUGUGGUAUAUUACCUGGUA [G17U G21C] | 0.661 |
| GUCCUCUUUCACGUGCCCGUGAAAGAGAGAAGUGAACCAGAAAAACACACGUUGUGGUAUAUUACCUGGUA [G17C G42A] | 0.176 |
| GUCCUCUUUCACGUGCUCGUGAAAGAGAGAAGUGAACCAGAGAAGCACACGUUGUGGUAUAUUACCUGGUA [G17U A45G] | 0.0728 |
| GUCCUCUUUCACGUGCUCGUGAAAGAGAGAAGUGAACCAGAGAAUCACACGUUGUGGUAUAUUACCUGGUA [G17U A45U] | 0.176 |
| GUCCUCUUUCACGUGCUCGUGAAAGAGAGACGUGAACCAGAGAAACACACGUUGUGGUAUAUUACCUGGUA [G17U A31C] | 0.224 |
| GUCCUCUUUCACGUGCUCGUGAAAGAGAGAUGUGAACCAGAGAAACACACGUUGUGGUAUAUUACCUGGUA [G17U A31U] | 0.104 |
| GUCCUCUUUCACGUGCCCGUGAAAGAGAGAAGUGAACCAGAGAAACACACGUUGGGGUAUAUUACCUGGUA [G17C U55G] | 0.196 |

| Variant | self-cleavage |
| --- | --- |
| GUCCUCUUUCACGUGCUCGUGAAAGAGUGAAGUGAACCAGAGAAACACACGUUGUGGUAUAUUACCUGGUA [G17U A28U] | 0.51 |
| GUCCUCUUUCACGUGCUCGUGAAAGAGCGAAGUGAACCAGAGAAACACACGUUGUGGUAUAUUACCUGGUA [G17U A28C] | 0.383 |
| GUCCUCUUUCACGUGCUCGUGAAAGAGAGAAGUGAACCAGAGAAACACACGUUGUGGUAUAGUACCUGGUA [G17U U62G] | 0.122 |
| GUCCUCUUUCACGUGCUCGUGAAAGAGAGAAGUGAACCAGAGAAACACACGUUGUGGUAUAAUACCUGGUA [G17U U62A] | 0.198 |
| GUCCUCUUUCACGUGCGAGUGAAAGAGUGAAGUGAACCAGAGAAACACACGUUGUGGUAUAUUACCUGGUA [C18A A28U] | 0.844 |
| GUCCUCUUUCACGUGCUCGUGAAAGAGAGAAGUGAACCAGAGAAACACACUUUGUGGUAUAUUACCUGGUA [G17U G51U] | 0.798 |
| GUCCUCUUUCACGUGCCCGUGAAAGAGAGAAGUGAACCAGAGAAACACACGCUGUGGUAUAUUACCUGGUA [G17C U52C] | 0.778 |
| GUCCUCUUUCACGUGCUCGUGAAAGAGAGAAGUGAACCAGAGAAACACACGUUGUGGUAUAUUACCUGGGA [G17U U70G] | 0.739 |
| GUCCUCUUUCACGUGCUCGUGAAAGAGAGAAGUGAACCAGAGAAACACACGUUGUGGUAUAUUACCUGGCA [G17U U70C] | 0.859 |
| GUCCUCUUUCACGUGCCCGUGAAAGAGAGAACUGAACCAGAGAAACACACGUUGUGGUAUAUUACCUGGUA [G17C G32C] | 0.183 |
| GUCCUCUUUCACGUGCUCGUGAAAGAGAGAAGUGAACCAGAGAAACACACGUUGUGGCAUAUUACCUGGUA [G17U U58C] | 1.13 |
| GUCCUCUUUCACGUGCUCGUGAAAGAGAGAAGUGAACCAGAGAAACACACGUUGUGGAAUAUUACCUGGUA [G17U U58A] | 0.593 |
| GUCCUCUUUCACGUGCUCGUGAAAGAGAGAAGUGAACCAGAGAAACACACGUUGUGGGAUAUUACCUGGUA [G17U U58G] | 0.644 |
| GUCCUCUUUCACGUGCCCGUGAAAGAGAGAAGUGAACCAGAGAAACACACGUUGUAGUAUAUUACCUGGUA [G17C G56A] | 0.0625 |
| GUCCUCUUUCACGUGCUCGUGAAAGAGAGAAGUGAACCAGGGAAACACACGUUGUGGUAUAUUACCUGGUA [G17U A41G] | 1.08 |
| GUCCUCUUUCACGUGCUCGUGAAAGAGAGAAGUGAACCAGCGAAACACACGUUGUGGUAUAUUACCUGGUA [G17U A41C] | 0.997 |
| GUCCUCUUUCACGUGCUCGUGAAAGAGAGAAGUGAACCAGAGAAACACACGUUGUGGUUUAUUACCUGGUA [G17U A59U] | 0.274 |
| GUCCUCUUUCACGUGCUCGUGAAAGAGAGAAGUGAACCAGAGAAACACACGUUGUGGUAUAUUACCUGGUU [G17U A71U] | 0.815 |
| GUCCUCUUUCACGUGCCCGUGAAAGAGAAAAGUGAACCAGAGAAACACACGUUGUGGUAUAUUACCUGGUA [G17C G29A] | 0.12 |
